# According to patent CN116535503A (KANGYUAN BOCHUANG BIOLOGICAL TECH BEIJING CO LTD, dated 2023):
# T1: GDF15-HIS(百普赛斯，CAT#:GD5-H5149) (human, UniProt Q99988 197-308)
# T1 sequence (looked up): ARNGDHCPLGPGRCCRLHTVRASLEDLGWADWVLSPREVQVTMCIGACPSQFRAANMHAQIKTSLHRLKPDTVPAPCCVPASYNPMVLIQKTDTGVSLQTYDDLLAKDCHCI
# T2: GDF1(R&D，6937-GD-010) (UniProt P27539 254-372)
# T2 sequence (looked up): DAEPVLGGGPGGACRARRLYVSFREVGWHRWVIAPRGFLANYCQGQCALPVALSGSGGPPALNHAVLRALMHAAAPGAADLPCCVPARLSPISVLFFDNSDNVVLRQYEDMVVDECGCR
# T3: GDF3(R&D，5754-G3-010) (UniProt Q9NR23 251-364)
# T3 sequence (looked up): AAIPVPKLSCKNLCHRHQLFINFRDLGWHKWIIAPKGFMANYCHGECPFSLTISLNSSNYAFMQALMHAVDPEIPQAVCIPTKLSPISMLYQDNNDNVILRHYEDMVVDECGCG
# B1: 53E5(hz) (antibody, human IgG1, kappa, V domains shown)
# VH: QVQLQESGPGLVKPSETLSLTCTFSGFSLSTSGMGVGWIRQPPGKGLEWLAHILWDDVKRYNPALKSRLTISKDSSKSQISLKLSSVTAADTAVYYCVQMAWDWFAYWGQGTTVTVSS
# VL: DIQMTQSPSSLSASVGDRVTITCKASQNVDTNVAWYQQKPGQSPKALIYSASYRSSGVPSRFSGSGSGTDFTLTISSLQPEDFATYYCQQYHSYPTFGQGTRLEIKR
# notes: also called 人源化抗体53E5(hz); 53E5人源化
# B2: AV380-hIgG1 (antibody)
# heavy: not shown
# light: DIQMTQSPASLSASVGETVTITCRTSENLHNYLAWYQQKQGKSPQLLVYDAKTLADGVPSRFSGSGSGTQYSLKINSLQPEDFGSYYCQHFWSSPYTFGGGTKLEIKRTVAAPSVFIFPPSDEQLKSGTASVVCLLNNFYPREAKVQWKVDNALQSGNSQESVTEQDSKDSTYSLSSTLTLSKADYEKHKVYACEVTHQGLSSPVTKSFNRGEC
# Assays:
# [1] = target: T1, GDF15-HIS(百普赛斯，CAT#:GD5-H5149); assay: cell-based or functional assay
# [2] = target: T2, GDF1(R&D，6937-GD-010); assay: ELISA, GDF1 coated at 1 μg/ml, HRP-anti-human IgG
# [3] = target: T3, GDF3(R&D，5754-G3-010); assay: ELISA, GDF3 coated at 1 μg/ml, HRP-anti-human IgG
Binder,"Bottom (fold luciferase activity), HEK293 SRE-LUC2-cRET-GFRAL reporter cells [1]","IC50(μg/ml), luciferase in HEK293 SRE-LUC2-cRET-GFRAL reporter cells stimulated with 5 ng/ml GDF15-His [1] [µg/mL]",binding result [2],binding result [3]
B1,1.1,0.0225,no binding (tested: 4μg/ml),no binding (tested: 4μg/ml)
B2,1.03,0.0447,,
